# According to patent US20230159601A1 (SEOUL NATIONAL UNIVERSITY HOSPITAL, published 2023):
# B1: human adenylyl cyclase-associated protein 1 (CAP1), wild type (other)
# chain: MADMQNLVERLERAVGRLEAVSHTSDMHRGYADSPSKAGAAPYVQAFDSLLAGPVAEYLKISKEIGGDVQKHAEMVHTGLKLERALLVTASQCQQPAENKLSDLLAPISEQIKEVITFREKNRGSKLFNHLSAVSESIQALGWVAMAPKPGPYVKEMNDAAMFYTNRVLKEYKDVDKKHVDWVKAYLSIWTELQAYIKEFHTTGLAWSKTGPVAKELSGLPSGPSAGSGPPPPPPGPPPPPVSTSSGSDESASRSALFAQINQGESITHALKHVSDDMKTHKNPALKAQSGPVRSGPKPFSAPKPQTSPSPKRATKKEPAVLELEGKKWRVENQENVSNLVIEDTELKQVAYIYKCVNTTLQIKGKINSITVDNCKKLGLVFDDVVGIVEIINSKDVKVQVMGKVPTISINKTDGCHAYLSKNSLDCEIVSAKSSEMNVLIPTEGGDFNEFPVPEQFKTLWNGQKLVTTVTEIAG
# notes: also called hCAP1; wtCAP1
# Molecular target: T1, recombinant human proprotein convertase subtilisin/kexin type-9 (rhPCSK9) (human, UniProt Q8NBP7 31-692, limits assumed)
# T1 construct: Elsewhere it is called His-rhPCSK9; also called recombinant hPCSK9; recombinant human PCSK9
# Test: surface plasmon resonance, direct binding analysis between rhPCSK9 and CAP1 (FIG. 1E)
# T1 sequence (Q8NBP7 31-692 limits assumed): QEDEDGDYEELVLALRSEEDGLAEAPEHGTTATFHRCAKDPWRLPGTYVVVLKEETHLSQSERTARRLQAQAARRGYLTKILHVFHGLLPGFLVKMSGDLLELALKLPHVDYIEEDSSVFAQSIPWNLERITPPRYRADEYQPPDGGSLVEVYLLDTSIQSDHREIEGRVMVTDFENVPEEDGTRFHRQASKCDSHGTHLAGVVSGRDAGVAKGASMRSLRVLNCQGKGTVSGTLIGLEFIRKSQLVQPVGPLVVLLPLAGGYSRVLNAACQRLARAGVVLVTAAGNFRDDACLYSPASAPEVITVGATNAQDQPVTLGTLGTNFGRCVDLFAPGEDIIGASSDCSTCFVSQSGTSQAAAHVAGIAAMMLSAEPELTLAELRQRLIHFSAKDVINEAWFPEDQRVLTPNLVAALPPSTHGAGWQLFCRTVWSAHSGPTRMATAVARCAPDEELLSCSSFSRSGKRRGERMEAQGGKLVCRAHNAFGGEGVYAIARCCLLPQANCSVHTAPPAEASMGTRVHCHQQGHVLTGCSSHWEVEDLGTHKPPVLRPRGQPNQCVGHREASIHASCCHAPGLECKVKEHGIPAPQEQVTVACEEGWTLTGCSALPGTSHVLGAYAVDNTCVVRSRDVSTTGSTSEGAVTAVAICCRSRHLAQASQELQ
binder,measurement,value
B1,Kd,1010 nM
